Data set [1] addresses T1, Bovine neck ligament-derived elastin (SIGMA, E1625), P04985.
T1 chain: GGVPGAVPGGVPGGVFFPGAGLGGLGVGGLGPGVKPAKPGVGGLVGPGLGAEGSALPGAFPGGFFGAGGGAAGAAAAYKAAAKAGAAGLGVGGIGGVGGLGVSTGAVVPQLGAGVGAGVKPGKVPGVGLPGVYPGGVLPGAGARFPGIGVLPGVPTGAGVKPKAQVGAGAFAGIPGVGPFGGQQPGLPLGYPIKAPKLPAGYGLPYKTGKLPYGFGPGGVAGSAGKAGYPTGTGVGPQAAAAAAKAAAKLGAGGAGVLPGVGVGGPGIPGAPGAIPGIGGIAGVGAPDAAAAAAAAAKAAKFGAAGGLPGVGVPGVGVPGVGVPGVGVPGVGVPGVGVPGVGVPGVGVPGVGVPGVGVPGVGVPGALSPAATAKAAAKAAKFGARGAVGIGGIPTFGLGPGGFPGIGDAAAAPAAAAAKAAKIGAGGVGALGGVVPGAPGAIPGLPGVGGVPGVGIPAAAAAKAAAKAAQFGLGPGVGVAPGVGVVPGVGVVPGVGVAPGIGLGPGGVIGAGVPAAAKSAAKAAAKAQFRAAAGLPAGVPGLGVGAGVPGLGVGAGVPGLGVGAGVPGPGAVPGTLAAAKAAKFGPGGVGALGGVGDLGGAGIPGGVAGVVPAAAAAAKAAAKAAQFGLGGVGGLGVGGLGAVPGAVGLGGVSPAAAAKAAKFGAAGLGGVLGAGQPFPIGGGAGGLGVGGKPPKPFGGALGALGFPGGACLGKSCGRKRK

For data set [2], the target named is bovine Achilles tendon-derived collagen (SIGMA, C9879).

B1: BLP homologue derived from Lysobacter gummosus (LgBLP) (protein)
chain: AERGLSGQDLVYSYDEMFDFDIDAYLAKNAPHLSRHAESISHWAGYSGISPKVLIALMEQQSGAITRKHAAADAAKRPFGALAKAKDFNGQTREVAQALREALYENDGPDAKGAVTVARANPLQALFERAGASQASAKLSGDGEFQLVYGRLFNEPRQAQAPSARFAKAGPDVQPLSP
For the protein B1, in data set [1], the “elastin degrading activity (amount of peptides liberated, relative value to savinase)” value was “LgBLP had lower elastin degrading activity as compared to savinase”.

B2: beta-lytic metallopeptidase (BLP) (protein)
chain: SAQGHGLSGEDLVYSYDEMFDFDIDAYLAKHAPHLHKHSEEISHWAGYSGISPKVLIALMEQQSGAVSAKRATNRPFGKLARADGFGAQTREVALALRESLYERDPDGAKGPVTLARANPLQALFERSGDNEPAAALRGDGEFQLVYGRLFNEPRQAKAASDRFAKAGPDVQPLSPNGL
With B2, the “elastin degrading activity (amount of peptides liberated, relative value to savinase)” value in data set [1] is reported as “BLP was equivalent in elastin degrading activity to savinase”. In data set [2], the “collagen degrading activity (amount of peptides liberated, relative value to savinase)” value is “had significantly lower collagen degrading activity as compared to savinase”.

The values are drawn from patent publication US20240117454.
